Test results taken from the DeepSol protein solubility set.

Experiment: soluble on expression in E. coli; label from the status in PepcDB or PDB records

| Sequence | soluble on expression in E. coli |
| --- | --- |
| MSLDEKLRTSGVQVIGDIAWGTHFCQFYRTQEELVNVVCPYLKAGLEGNELCIWALPRDFETKKEAEGPLRRTIPKLDIYLEKGQMEIISYKDRYAEKEIPDSKKALENLIKKADYALLNGYSGLRLVQDTSWLKNDWKNLTGYEEELDIAIENRRITALCTYSSGKFDTDETIYAALSHRFVLVKKEGNWEKVENPRLKKAEERVIQPSEEVETKTEEENENLKKLLEERTVELTEAYKSLKVNEKQFLQIRKMTHIGNWKWDILTGELHWSDEVYRIFGRDPERFKATCDAFLGSVHPDDREYLINSIKKDFDEQIRNIDYRIVLPDGEERTVRTRVEITFDEENQPVRAEGIVQDITELKRIEKALQEREEQYRAFFENSMDAVLFASPDGTIHAANKAACKTFGMTEKEIIRAGRNGIVDQSDPRLKPSLEERNSTGRFKGEINHKRKDGTIFPGEVSTALFKDKNGLMKIVIIIRDITERKKAEEVLRKSEEHYRMLFTNEGHHHHHH | soluble |
| PQSAVLHYSGSYGIPATMTFERSGNAYKIVSTIKVPLYNIRFESGGTVVGNTLHPTYYRDIRRGKLYAEAKFADGSVTYGKAGESKTEQSPKAMDLFTLAWQLAANDAKLPPGLKITNGKKLYSVGGLNKAGTGKYSIGGVETEVVKYRVRRGDDAV | not soluble |
| MGARQRMVASKGAVLSMLMDAYQKRDRVGLIAFKGDSAELLLPPTSSIELAQKYLQEMPTGGKTPISRGLVKGYEIIKSELRRDPDTCPFMVLISDGRANVSMNGEPPLHEIITIASRLKEEGIQSAVIDTESSMIKFGFAQQISTALGATYLTLENLKADSIVNAVRASAPFEIMMHPGVSSV | not soluble |
| VRWIGLSTGLVSAMLVAGLVACGSNSPASSPAGPTQGARSIVVFAAASLQSAFTQIGEQFKAGNPGVNVNFAFAGSSELATQLTQGATADVFASADTAQMDSVAKAGLLAGHPTNFATNTMVIVAAAGNPKKIRSFADLTRPGLNVVVCQPSVPCGSATRRIEDATGIHLNPVSEELSVTDVLNKVITGQADAGLVYVSDALSVATKVTCVRFPEAAGVVNVYAIAVLKRTSQPALARQFVAMVTAAAGRRILDQSGFAKP | not soluble |
| MTVQVFHTLFLTNDCGDHVVLINTREIALPGDEWVKRVYFHHTGYPGGASWTLAWQLHEKDPTMVMKKAVYNSMRGNLQRRHTMQRLHLFADDQVPEEILQNVTNQIRTPRSIPQRLDHIDKETLENFPNIMDYPKDYILRLEHHHHHH | not soluble |
| MEEARLLVTCPDRPGIVAAVSGFLYAHGANITDLQQHSTDPEGGTFFMRVAFTASHLDLARPALERAFQEVVASRFQMQWRLAYASERKRTAILVSKPAHALLELLWRYRVGELPMELRLVISNHPDHREEVERFGIPYHHVPVEKGRKEEAEERILALLEAEGVELVVLARYMQILSPGFVERFPMRIINIHHSFLPAFAGADPYRQAYERGVKLIGATAHYVTEELDQGPIIEQDVVRVSHRHSVREMKRLGRELERTVLARAVRWHLEDRILVHENRTVVFV | soluble |
| MGSDKIHHHHHHMKDKVVVSQLGARMHYAVPRIFASAGRLAHFYTDICATKGWPRIVNSFPATLYPAPVKRLAGRLPKGVPTALTTVFSNFGLRSVLRHMRAKDVVEETSHAIWAGSIFSEMVARRGFHGAAGLYAFSGDALEQMQAAKQQGLWTAVEQMIAPRDVVEMLLNQEMKRFPAWAGPVQENPHARLFAEREKAEWRLADVIVCPSEFVRKNVVACGGPEDRCVVVPYGVNAAVANNRPARMPGPIRVLTVGEVGLRKGSPYVVEASRLMEGSARFRMAGRVRLADDVKQQISQWVELRGIVPRSQIAEEFRWADVFLLPSLCEGSATAVYEALAAGLPVITTENTGSVVRDGIEGFIVPVCDPEAIATAVRALAGNPELMRSMSANALLRAAEHTVESYGERLLAVLSGPHLAGSVGLCQTEEARYLGNNTI | not soluble |
| MEARFAELLAAYCLEAQSGETVLVEAETPALPLLPHLKRALLRRGAYPLIRLSYPGEERDFLLFGGRWLEEVPEAELALYQRADKFLRVLSAENPLEAAAVDPALALRRQRAWRLLQEIRLGKRWALTLYPTVGYAVGAGMGTEEFRAYLERALFLDREDPVAAWQELSRFQEGLIRRLSAAKELRILAPGTDLRLSVAGRTWVNSDGRRNMPSGEVFTGPVEDSAEGEVRFNLPAFVGGRRVKGVYLRFARGQVVKARAKAGKAYLQAALATDEGARRLGEVGIGTNFALDRPTGLVLLDEKMGGTVHLALGRSYPEAGGRNESALHWDLVLSLREGRLLLDGTPLLEAGRFL | soluble |
| MSLILRWGIIGPGWIAERFVHSLKTYSRQQVVAVASRSQAKADRVAAEWGIPQAYGQVEEMLARPDIDAVYIATPHNHHFPDGMQALKAGKHVLIEKPFALNLGEGRELQAEAARQEKLALEAMWCDYAPKYDVIRQLLEDGALGDLHTLLADHGEYFTRDHRIFNADLAGGPMMDLGSYVTSFALMVGGMPQEIVARGSATAEGLNGQTSMLFSWQNGMQGLLNTTLFSNTPGGAVVAGRQATLTIDGQFYAPGGFTLAASQGGQVLRWEEPRNRYDQLFWQAEHFAWCIGQGLQDSPLRPLSRVLQNLQVMDEVRRQVGAVFNEEREGHHHHHH | not soluble |
| AENDKPQYLSDWWHQSVNVVGSYHTRFGPQIRNDTYLEYEAFAKKDWFDFYGYADAPVFFGGNSDAKGIWNHGSPLFMEIEPRFSIDKLTNTDLSFGPFKEWYFANNYIYDMGRNKDGRQSTWYMGLGTDIDTGLPMSLSMNVYAKYQWQNYGAANENEWDGYRFKIKYFVPITDLWGGQLSYIGFTNFDWGSDLGDDSGNAINGIKTRTNNSIASSHILALNYDHWHYSVVARYWHDGGQWNDDAELNFGNGNFNVRSTGWGGYLVVGYNFHHHHHH | soluble |
| MRLAFFGDVHGNFEALKAVLEDMENKGVDEVFCLGDLVGYGPDPEAVVQTIMEKNIKTIMGNYDDAVGYSKESCGCSYAPGRETEVGDISLKWSIENTSEKTREFLRNLPKKLSFEVEGVRFLLVHGSPLNELLEYVKPNTPPDRLKKIVESVEENVVVNGHTHLPMVKWVMGKLVLNPGSAGRPKDGDPRASYMIVDVENGTVSFEIVRVRYDVKTTVEKIARNGLPVELATVLALGQTFDMGPGKVTFTLGR | soluble |
| KPMKILLANPRGFCAGVDRAISIVERALELYQPPIYVRHEVVHNRFVVEGLKQRGARFVEELNEVPDDNIVIFSAHGVSQAVRQEAKERSLTVFDATCPLVTKVHMEVARASRKHMEVVLIGHAGHPEVEGTMGQYASDTGGMYLVEKPEDVVSLQAKVKDPSNLHYVSQTTLSVDETADVIDELRRVFPKIQGPRKDDICYATQNRQDAVRILAEQVDVMVVVGSKNSSNSTRLKELAEKLGTPGYLIDCPQDIDPEWFVDAQLIGVTAGASAPEELVNQILDRIKELGAT | not soluble |
| MDHIVLTHVFNGGSAESAALCPQDKIIALDGYACTDFAAQWARYHVRAKINIHFFRAGILRQTVLTVQATALEHHHHHH | not soluble |
| MFEKVKVSTCFHVTLLKDYIVFYVSNNLNFASRWPRRRRGQRLLPTALRAMMLNPTEALLAEVSKARTSGARITVEEFIPIYKKVEAACGRSTTLKEFQTLLSHFDREGNGQIMLMELKSMLQNGGEKMTNQEARALKPATGLDTIYRNLNFNHKFTLDHSAIGFLRTNQFFDVQMIPVSRFFTVQDPSNALLSYTQKGIDFFEKLGQFSKEKAAIEEEYSTKLRSLAKKYAKKSEEDDEILKSVSYTSSFNSFLQQLDQIATRHQTSAEHIRGGVVSYVASKTCQMRSSRKNAINDLKTINDKLEDQINEMCKSGKCYLKSFKDAENSYQKFYKADKNLEISRLELEKARALANARNEACELAKQDYSALVRKTNAEQKRYHVELLPVIFARLKAVDKECIADMRQVLQKIVSFDDSLADSTEECRKIMQREVGKIDAEGDAQLVLKSVEATIEQPAPFEIEDLGDPKNCDSRTNDSADGSGGKLLKSSPSKNRIIRNFLGILKEKEADEKPEASNNDQLMYTDKSKPAHVRLSCLRSKIRDMEKQLEQAIQGREGITRLQQAYYTNPQHGNPSACTEPLISYAKKIEKLKMDIHNLKEFYAMLEMSVEEGQERSFGGRDTPDTTRSMSGSSTNQSSSKTIEDVLSGEAGNSSSADDSSKNILRQLFTTPKRLISSPKTSKSSTPTPLRRRAEISSPKILRSSFSGAIRKSLSTPDSVKVETAVTVTALFEFAKSSAETMSIEQGEILLVLEHDHGDGWTRTKKKHNEESGFVPTSYLQFPQ | not soluble |
| MGSDKIHHHHHHMLRYHMQGFSGYGVQYSPFFDNRLAVAAGSNFGLVGNGKLFILEIDRSGRIVEVNSFLTQDCLFDLAWNESHENQVLVAQGDGTLRLFDTTFKEFPIAIFKEHEREVFSCNWNLVNRQNFLSSSWDGSIKIWSPLRKQSLMTLTPRPLEITKMVDPLNAIILKKKSFTGISKNRNCVYQAQFSPHDQNLVLSCSGNSYASLFDIRLPSGKNQNNFLVHSGLEALTCDFNKYRPYVVATGGVDNAIRIWDIRMLNKNESATIKRTVPGQLHNSSCINEIPNAHGLAIRKVTWSPHHSNILMSASYDMTCRIWRDLSNDGAKETYKTNSTDATKGSIFNFTQHSEFVFGADWSLWGKPGYVASTAWDGNLFVWNGLG | not soluble |
| GSSEEESFFVQVHDVSPEQPRTVIKAPRVSTAQDVIQQTLCKAKYSLSILSNPNPSDYVLLEEVVKDTTNKKTTTPKSSQRVLLDQECVFQAQSKWKGAGKFILKLKEQVQASREDK | soluble |
| MHAILNTFKSGVGDCVFMRLIKDDATFSIMIDCGKYTPEINLFIKEKLHKHIDLLIVTHIDDDHINGVCEMLIAMPEITIGKIFYNCYQLLSGEKIAALTKIVSSDIEILTQNLPKQRTDTNGKINMEHASVLASILLKNPQWNSAWEKTFYIENSLEPYPLGDGLGQLVFISPTSSELKTLDMNFAREYLRLTRHEVINAPFEGRETLFELVSRLVSMKIREREYVKKQKIAGLIDKYSVERWKKAKDFEPSGITDENKGSIAFIWEYKDTKVLFMGDAEPDIVKTAIVNKYGKVDNMKAIKVSHHGSKHSTSKELMEVIDSFDYFITGGSVGDKPSMETLVKIVDRGDNKVRTIHYNYDRNILMKDMASDESVELRQKYNFQIDTNNELEFEY | not soluble |
| MSLTNIEEFMPEKLAKAIANPLFPELDSLLRSGRHVASEDLDNHALLCEFEHELGLFYQRYNAELVKAPEGFFYLRPRSTSFIARSVLAEIDMLVGKVLCFLYLSPERLAHEGIFTNQELFDELLVLADEQKLMKLVTNRASGSDLDKEKLFDKVRTSLRRLKRLGMIIPVGEQGKFRISEAVFRFGADVRTSDDMKEAQLRLIRDGEAVVVHQEEASQSSLDLDADSNEKPAEEQHELELEGDLLEHHHHHH | soluble |
| QVQLQQSGPEDVKPGASVKISCKASGYTFTDYYMNWVKQSPGKGLEWIGDINPNNGGTSYNQKFKGRATLTVDKSSSTAYMELRSLTSEDSSVYYCESQSGAYWGQGTTVTVSA | soluble |
| GPGSMTQNIIRRIFGNRELPENLSGSEYERYMQENFPKWIDEFEKGGFLEATKLPAIKSERDFLSKLIEHKDEIMVVKYWKHGCIPCLSLAEMYKQVSEQCKKENRRIAWYSVNTKDVSARSLVDYQLVNGTPTVQTFSRMKQVGKEIRAISAEELMRELSLREAALNTES | soluble |
| MAHHHHHHSLSDLKIARIDVFQVDLPYSGGVYYLSAGREYRSFDATIVRITTDTGIEGWGESTPFGSNYIASHPRGVRAGIATMAPSLIGLDPRRVDRINDAMDDALLGHEDAKTAIDVACWDIFGKSVGLPVCELLGGRTNTRLPLISSIYVGEPEDMRARVAKYRAKGYKGQSVKISGEPVTDAKRITAALANQQPDEFFIVDANGKLSVETALRLLRLLPHGLDFALEAPCATWRECISLRRKTDIPIIYDELATNEMSIVKILADDAAEGIDLKISKAGGLTRGRRQRDICLAAGYSVSVQETCGSDIAFAAIVHLAQTIPERSLRCILECRDMVTVKTADGAFDIQDGFATAPTTPGLGIMPRLDVLGEAVASYF | soluble |
